B1: antibody 367 (antibody, V domains shown)
VH: QVQLVQSGAEVKKPGASVKVSCKASGYTFTGYYIHWVRQAPGQGLEWMGWINPNSGGTIYAQKFQGRVTMTRDTSISTAYMELSRLTSDDTAVYSCAREPYYDILTGYYAPRRYFDYWGQGTLVTVSS
VL: QSALTQPASVSGSPGQSITISCTGTSSDVGSYNYVSWYLQHPGKAPKLMIYDVSNRPSGVSNRFSGSKSGNTASLTISGLQAEDEADFYCSSYTSRSTYVFGTGTKVTVL
B2: antibody 379 (antibody, V domains shown)
VH: QVQLQESGPGLVKPSQTLSLTCTVSGGSISSGGYYWSWIRQHPGKGLEWIGYIYYSGSTYYNPSLKSRVTISVDTSKNQFSLKLSSVTAADTAVYYCARGPLDFWSGYFRLRYFDSWGQGTLVTVSS
VL: QSALTQPASVSGSPGQSITISCTGTSSDVGGYNYVSWYQQHPGKAPKLMIYDVTNRPSGVSNRFSGSKSGNTASLTISGLQAEDEADYYCSSYTSSSTCVFGTGTKVTVL
B3: antibody 337 (antibody, V domains shown)
VH: QVQLVESGGGVVQPGRSLRLSCAASGFTFSSYGMHWVRQAPGKGLEWVAIIWYDGSNKYYADSVKGRFTISRDNSKNTLYLQMNSLRAEDTAVYYCAKDTGGYCSGGSCYPESYFDYWGQGTLVTVSS
VL: SYVLTQPPSVSVAPGKTARITCGGNNIGSKSVHWYQQKPGQAPVLVIYYDSDRPSGIPERFSGSNSGNTATLTINRVEAGDEADYYCQVWDGSSDHLYVFGTGTKVTVL
B4: antibody 366 (antibody, V domains shown)
VH: QVQLVESGGGVVQPGRSLRLSCAASGFTFSSYAMHWVRQAPGKGLEWVAVISYDGSNKYYADSVKGRFTISRDNSKNTLYLQMNSLRAEDTAVYYCARGLVGYNWFDPWGQGTLVTVSS
VL: DIQMTQSPSSVSASVGDRVTITCRASQGISSWLAWYQQKPGKAPKLLIYAASSLQSGVPSRFSGSGSGTDFTLTISSLQPEDFATYYCQQANSFTFGPGTKVDIK
B5: antibody 348 (antibody, V domains shown)
VH: QVQLVQSGSELKKPGASVKVSCKASGYTFTSYAMNWVRQAPGQGLEWMGWINTNTGNPTYAQGFTGRFVFSLDTSVSTAYLQISSLKAEDTAVYYCARDHELPNTSSWFGHFEYWGQGTLVTVSS
VL: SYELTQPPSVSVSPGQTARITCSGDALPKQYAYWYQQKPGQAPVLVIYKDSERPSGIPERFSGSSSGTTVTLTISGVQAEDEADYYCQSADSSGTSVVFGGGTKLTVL
B6: antibody 331 (antibody, V domains shown)
V domain 1: QITLKESGPTLVKPTETLTLTCSFSGFSLTKTGEAAGWIRQAPGRALEWVTVIFWDDDKRYSPSLQNRISVTKDTSKNQVVLRMTNVARFDTGTYFCWAMGGPGKEYFGQGTLVAVSS
V domain 2: QSVLTQPPSVSGAPGQRVTISCTGTSSSIGPYSDVHWYQHVSGKAPRLLIFGNSNRPSGVPDRFSGSKSGTSASLVIAGLQAEDEADYYCQSYDSSLGEIYVFGTGTTVTVL
B7: antibody 368 (antibody, V domains shown)
V domain 1: QITLKESGPTLVKPTETLTLTCAFSGFSLTKTGEAAGWIRQAPGRALEWVTVIFWDDDKRYSPSLQNRLTVTKDTSKNVVVLTMTNVDPVDTATYFCWAMGGPGKEFFGQGTRVAVSS
V domain 2: QSVLTQPPSVSGAPGQRVTVSCTGTSSSIGPYSDVHWYQHIPGKAPRLLIFGTSNRPSGVPARFSGSKSGSSASLVIAGLQAEDEADYYCQSYDSSLGEIYVFGTGTTVTVL
B8: antibody 339 (antibody, V domains shown)
V domain 1: QITLKESGPTLVKPTETLTLTCSFSGFSLTRTGEAAGWIRQAPGRALEWVTVIFWDDDKRYSPSLQSRLTVTKDTSKNQVVLTMTNVARFDTATYFCWAMGGPGKEYFGQGTQVAVSS
V domain 2: QSVLTQPPSVSGAPGQRVTISCTGTSSSIGPYSDVHWYQHVSGKAPRLLIFGNSNRPSGVPDRFSGSKSGTSASLVIAGLQAEDEADYYCQSYDSSLGEIYVFGTGTTVTVL
B9: antibody 363 (antibody, V domains shown)
VH: EVQLLESGGGLVQPGGSLRLSCAASGFTFSTYAMSWVRQAPGKGLEWVSAISGSGGSTYYADSVKGRFTISRDNSKNTLYLQMNSLRAEDTAVYYCASGYSPDYWGQGTLVTVSS
VL: not shown
B10: antibody 340 (antibody, V domains shown)
VH: QVQLVQSGAEVKKPGASVKVSCKASGYTFTSYDINWVRQATGQGLEWMGWMNPNSGNTGYAQKFQGRVTMTRNTSISTAYMELSSLRSEDTAVYYCARGRYCTGGVCWGDWYFDLWGRGTLVTVSS
VL: QSVLTQPPSVSGAPGQRVTISCTGSSSNIGAGYDVHWYQQLPGTAPKFLIYGNSNRPSGVPDRFSGSKSGTSASLAITGLQAEDEADYYCQSYDSSLSGPVFGGGTKLTVL
B11: antibody 372 (antibody, V domains shown)
VH: QVQLVESGGGVVQPGRSLRLSCAASGFTFSSYAMHWVRQAPGKGLEWVAVISYDGSNKYYADSVKGRFTISRDNSKNTLYLQMNSLRAEDTAVYYCARDLGTSALLWFGELFLNYGMDVWGQGTTVTVSS
VL: QSALTQPRSVSGSPGQSVTISCTGTSSDVGGYNYVSWYQQHPGKAPKLMIYDVSKRPSGVPDRFSGSKSGNTASLTISGLQAEDEADYYCCSYAGSPILVFGGGTKLTVL
B12: antibody 345 (antibody, V domains shown)
VH: QVQLQESGPGLVKPSQTLSLTCTVSGGSISSGDYYWSWIRQPPGKGLEWIGYIYYSGSTYYNPSLKSRVTISVDTSKNQFSLKLSSVTAADTAVYYCARVGMVDNWNFEGNWFDPWGQGTLVTVSS
VL: QSALTQPRSVSGSPGQSVTISCTGTSSDVGGYNYVSWYQQHPGKAPKLMIYDVSKRPSGVPDRFSGSKSGNTASLTISGLQAEDEADYYCCSYAGSVVFGGGTKLTVL
B13: antibody 343 (antibody, V domains shown)
VH: QVQLVESGGDVVQPGTSLRLSCAASGFTFNNYGFHWVRQAPGKGLEWVALISSDGASTHYADSVKGRFTISRDSSVNTLYLQMNSLSLEDTAVYYCATGHCGTTCYYFDYWGQGTLVSVSS
VL: DIQVTQSPSYLSASVGDRVTITCRASQTISTFLQWYQQKVGKAPKLLIYAASTLQSGVPSRFSGSGSGTDFSLTISSLQPEDFATYYCQQSYSAPLSFGGGTKVEIK
B14: antibody 380 (antibody, V domains shown)
VH: QVQLVESGGGVVQPGRSLRLSCAASGFTLKNYGMHWVRQAPGKGLEWVIVLSFDGSDEYKADSVRGRFTVSRDNSKNTLFLQMNSLRPDDTAVYYCAREQPTMIEGGRGPFDIWGQGTMVTVSS
VL: EVVMTQSPATLSVSPGDRATLSCRASQGVNSNLAWYQQKPGQAPRLLIYAASTRATGIPARFSASGSGTHFTLTISSLQSEDFAVYYCLQYNNWPPWTFGQGTKLEIK
B15: antibody 342 (antibody, V domains shown)
VH: EVQLVQSGAEVKKPGATVKISCKVSGYTFTDYYMHWVQQAPGKGLEWMGLVDPEDGETIYAEKFQGRVTITADTSTDTAYMELSSLRSEDTAVYYCATGGVSVWFREFPASYSGSYLGYWGQGTLVTVSS
VL: not shown
B16: antibody 332 (antibody, V domains shown)
VH: QVTLRESGPALVKPTQTLTLTCTFSGFSLSTSGMCVSWIRQPPGKALEWLALIDWDDDKYYSTSLKTRLTISKDTSKNQVVLTMTNMDPVDTATYYCARIHDDILTGYHYVDYWGQGTLVTVSS
VL: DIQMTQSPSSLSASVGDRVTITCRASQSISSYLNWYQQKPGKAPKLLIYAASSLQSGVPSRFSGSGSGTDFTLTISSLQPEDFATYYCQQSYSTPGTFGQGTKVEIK
B17: antibody 351 (antibody, V domains shown)
VH: HVQLVESGGGVVQPGRSLRLSCAASGFISRNYGMEWVRQAPGQGLEWVAGIWYDGSKKYYADSVKGRFTISRDTSKNTLFLQMDSLRAEDTAVFYCATATKTFCGGDCPPGGMDVWGQGTTVTVST
VL: SYVLTQPPSVSVAPGKTAWITCVGNNIESESVHWYQQRPGQAPVLVIYYDSDRPSGIPERFFGSNSGNTATLTISRVEAGDEADYYCQVWDSNSDLMVFGGGTKLTVL
B18: antibody 333 (antibody, V domains shown)
VH: QVHLVESGGGVVLPGRSLRLSCSASQFIFSNYDMHWVRQSPGMGLEWVAGISSDGSDKYYIDSVRGRFTISRDNAKNTLFLQMNSLTTEDTAVYSCAKGGGKFGQYWGRGTLVTVSS
VL: AIQMTQSPSSLSASVGDRVTITCRASQVIRNDLAWFQQKPGEAPNLLVYSASNLQSGVPSRFSGSGSGTDFTLTISSLQPEDFATYYCLQDYSYPYTFGQGTKLDMK
B19: antibody 349 (antibody, V domains shown)
VH: EVQLVQSGAEVKKPGATVKISCKVSGYTFTDYYMHWVQQAPGKGLEWMGLVDPEDGETIYAEKFQGRVTITADTSTDTAYMELSSLRSEDTAVYYCATENKVPTIIAAAGTRDYYYYGMDVWGQGTTVTVSS
VL: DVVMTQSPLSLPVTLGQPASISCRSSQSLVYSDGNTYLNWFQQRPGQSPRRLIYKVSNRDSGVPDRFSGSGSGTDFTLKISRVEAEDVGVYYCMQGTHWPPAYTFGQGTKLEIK
B20: anti-SARS-CoV-2 antibody 364 (antibody, V domains shown)
VH: EVQLVESGGGLVQPGRSLRLSCTASGFTFGDYAMSWFRQAPGKGLEWVGFIRSKAYGGTTEYAASVKGRFTISRDDSKSIAYLQMNSLKTEDTAVYYCTRFGIDYDYIWGSYRYTTLFDYWGQGTLVTVSS
VL: not shown
B21: anti-SARS-CoV-2 antibody 292 (antibody, V domains shown)
VH: EVQLVESGGGLIQPGGSLRLSCAASGFTVSSNYMSWVRQAPGKGLEWVSVIYSGGSTYYADSVKGRFTISRDNSKNTLYLQMNSLRAEDTAVYYCARDLQGGGGPWGQGTLVTVSS
VL: AIQMTQSPSSLSASVGDRVTITCRASQGIRNDLGWYQQKPGKAPKLLIYAASSLQSGVPSRFSGSGSGTDFTLTISSLQPEDFATYYCLQDYNYPRTFGQGTKVEIKR
B22: anti-SARS-CoV-2 antibody 447 (antibody, V domains shown)
VH: EVQLVESGGGLVQPGGSLRLSCAASGFTVSSNYMSWVRQAPGKGLEWVSVIYSGGSTYYADSVKGRFTISRDNSKNTLYLQMNSLRAEDTAVYYCARDKSSGSGPWGQGTLVTVSS
VL: AIQMTQSPSSLSASVGDRVTITCRASQGIRNDLGWYQQKPGKAPKLLIYAASSLQSGVPSRFSGSGSGTDFTLTISSLQPEDFATYYCLQDYNYPRTFGQGTKVEIKR

Biological target: SARS-CoV spike protein (SARS-CoV, UniProt P59594 14-1190)
Test: not given

Point of comparison: B2, “median fluorescence intensity, fold over isotype control” value 5.9 fold over isotype. Against it:
- B1 — lower, 1.08 fold over isotype
- B3 — higher, 439 fold over isotype
- B4 — lower, 1.23 fold over isotype
- B5 — lower, 1.16 fold over isotype
- B6 — lower, 1.34 fold over isotype
- B7 — lower, 1.09 fold over isotype
- B8 — lower, 1.27 fold over isotype
- B9 — lower, 1.09 fold over isotype
- B10 — lower, 1.26 fold over isotype
- B11 — lower, 1.08 fold over isotype
- B12 — lower, 1.09 fold over isotype
- B13 — lower, 1.19 fold over isotype
- B14 — lower, 1.21 fold over isotype
- B15 — lower, 1.16 fold over isotype
- B16 — lower, 0.99 fold over isotype
- B17 — lower, 1.08 fold over isotype
- B18 — lower, 1.21 fold over isotype
- B19 — lower, 1.12 fold over isotype

Biological target: SARS-CoV-2 full-length spike protein on pseudotyped lentivirus (SARS-CoV-2, UniProt P0DTC2 14-1273)
Test: cell-based or functional assay

B20 and B21 cannot be ordered by “IC50 (pseudoneutralization)” value: over 50 µg/mL for the first, over 50 µg/mL for the second.

B22 was tested, and the “IC50 (pseudoneutralization)” value was over 50 µg/mL.

B20 and B21 cannot be ordered by “IC80 (pseudoneutralization)” value: over 50 µg/mL for the first, over 50 µg/mL for the second.

For B22, the “IC80 (pseudoneutralization)” value was over 50 µg/mL.
